The nature of the data set: label from the status in PepcDB records.

Experimental findings from a protein production outcome set (Wang et al. 2014) are described below.

With “MSLHGKLIQFHKFGNPKDVLQVEYKNIEPLKDNEVFVRMLVRPINPSDLIPITGAYAHRIPLPNIPGYEGVGIVENVGAFVSRELIGKRVLPLRGEGTWQEYVKTSADFVVPIPDSIDDFTAAQMYINPLTAWVTCTETLNLQRNDVLLVNACGSAIGHLFAQLSQILNFRLIAVTRNNKHTEELLRLGAAYVIDTSTAPLYETVMELTNGIGADAAIDSIGGPDGNELAFSLRPNGHFLTIGLLSGIQVNWAEIVTKAKVHANIFHLRHWNDEVSPYKWQETFRHLIRLVENEQLRFMKVHSTYELADVKAAVDVVQSAEKTKGKVFLTSYEGHHHHHH”, the protein production result was “not failed”.

As to “MSLIILTRDDEPRIFTPDSDAASPALHSTSPLPDPASASPLHREEKILPKVCNIVSCLSFSLPASPTDSGLASPTIITREGQQFWAKCLIWKYQLYLHGLHKKSDGRRDKQISASPST”, the protein production entry is “failed”.

For “MSLILLGALSLASSTFAQTWIWYPGDYEIWLGNQMNNRRTERGAFFPPFWKTDSHYVVVEFSKVLNLSEPEEVFIAAEGTYNVKLDGKLQFGMPETLLLPAGKHSLNIKVWNQATPPTIYVKGKTVNSDSSWRVTYEDKEWIDESGKASDTSATIYMDAGCWNFDGATQRPSQFSLMREPQQPVAKTEQPEGGILYDFGKETFGFITLKNLSGKGKIDLYYGESPEEAKDKAYCETLDKLLLEPGQITDLAIRSTSPLHHSDNEYTLENSKAFRYVYITHEPEVQIGEVSMQYEYLPEEYRGNFRCNDEELNCIWEVGAYTMHLTTREFFIDGIKRDRWVWSGDAIQSYLMNYYLFFDSESVKRTIWLLRGKDPVTSHSNTIMDYTFYWFLSVYDYYMYSGDRHFVNQLYPRMQTMMDYVLGRTNKNGMVEGMSGDWVFVDWADGYLDKKGELSFEQVLFCRSLETMALCADLVGDKDGQQKYEKLASALKAKLEPTFWNNQKQAFVHNCVDGRQSDAVTRYANMFSVFFDYLNADKQQAIKQSVLLNDEILKITTPYMRFYELEALCALGEQETVMKEMKAYWGGMLKAGATSFWEKYNPEESGTQHLAMYGRPYGKSLCHAWGASPIYLLGKYYLGVKPTKEGYKEFAVSPVLGGLKWMEGTVPTPNGDIHVYMDNKTIKVKATEGKGYLTIQSRRQPKANMGTVEKVSEGVWRLWIDSPEERIVTYRLEGHHHHHH”, the protein production entry is given as “not failed”.

For the sequence “MSLILYDYFRSTACYRVRIALNLKKIAYEKIEVHLVNNGGEQHSLQYHQINPQELVPSLDINGQILSQSMAIIDYLEEIHPEMPLLPKDPFMKATLKSMALIVACDMHPLNNLRVLNRLKEQFNANEEQVLEWYHHWLKTGFDAFEEKLGALERDKPVCFGSEVGLADVCLIPQVYNAHRFHFDMASYPIINEINEYCLTLPAFHDAAPEAISSEGHHHHHH”, the protein production result is listed as “not failed”.

In the case of “MSLIMITAEMVPPDLLIKRLAIYLKENVKTVDPPEWALLAKTASFKERVPDNAEDWWYIRAASLLRKLYVNSIIGIEKTRTIYGGRKRRGTRPEKFVKAPGHVNRLIFQQLEKAGLVQKIKNKGRSLSPKGRSLLDKLALEIFKELAENNTSLKVYLELEHHHHHH”, the protein production result was “not failed”.

As for “MSLISFAPHSGVWLLTTPHTSYALRIDASGAPCHLAWGPRLTLAAAEELAVPEPPAASSFEGRPSVGEELPVDGGVRYGPPSLQVRFADGSRAFEWQPTGHRVHESADGAHELVLFFRDRRYPLQVALHYRVRADTDVIERWTVVRNGGDEPVTLLRADSAAWTLPPLADYRLSHVTGQWSAESRLRRDRLPYGETVLTSRRGITSHHTNPWLMVDSGEATEDHGRVWSAALAWSGSWRITTQRTPDGRTGFTGGVGHDGTGVPLTPGEEFTAPAFAGLFTADGFGAASRAWHAYTLAHVLPHPDEPVPVLYNSWEATGFDVDEVGQKALAERAAALGVELYVVDDGWFGGRRSDRAGLGDWTPAPDRFPDGLGPLADRVRELGMRFGLWVEPEMVNPDSDLYRAHPDWVLHLPDRSRSELRNQLVLNFARRDVADWAYGWLTELVGAHRIDFLKWDMNRAFSEAGWPGQQDGADRLGTQYVRHLYGVIDRLRADHPGLRIESCSGGGGRIDLGILGRTDQTWASDNTDAADRLWIQHGFSQIYPARTMGCWVTDAPNQFTGRGLPLRFRFHAAMAGALGIGGDLARWSEEELREGAALVTEYKKVRHLVQHGRLDRLSPPSGQSPAVVQYTSADGSESLVLAWRGVPRPGDADLPVRLRALTPAARYRDSRTGTVHHASVLGDYGLRLDLPAGDWSSVAMHLVREPEAV”, the protein production entry is “failed”.

On to “MSLIVITGASSGLGAELAKLYDAEGKATYLTGRSESKLSTVTNCLSNNVGYRARDLASHQEVEQLFEQLDSIPSTVVHSAGSGYFGLLQEQDPEQIQTLIENNLSSAINVLRELVKRYKDQPVNVVMIMSTAAQQPKAQESTYCAVKWAVKGLIESVRLELKGKPMKIIAVYPGGMATEFWETSGKSLDTSSFMSAEDAALMIHGALANIGNGYVSDITVNREGHHHHHH”, for which the protein production entry is “not failed”.

For the sequence “MSLKFDFSNLFEPNISGGLTDEDVKSVEEKVTSAVRNFVENTPDFAKLDRSWIDSVKSLEDWIINFDTVVVLGIGGSGLGNLALHYSLRPLNWNEMTREERNGYARVFVVDNVDPDLMSSVLDRIDPKTTLFNVISKSGSTAEVMATYSIARGILEAYGLDPREHMLITTDPEKGFLRKLVKEEGFRSLEVPPGVGGRFSVLTPVGLLSAMAEGIDIDELHEGAKDAFEKSMKENILENPAAMIALTHYLYLNKGKSISVMMAYSNRMIYLVDWYRQLWAESLGKRYNLKGEEVFTGQTPVKALGATDQHSQIQLYNEGPNDKVITFLRVENFDREIVIPETGRAELSYLARKKLSELLLAEQTGTEEALRENNRPNMRVTFDGLTPYNVGQFFAYYEAATAFMGYLLEINPFDQPGVELGKKITFALMGREGYTYEIKERSKKVIIE”, the protein production entry was “not failed”.

With “MSLKGKRIGFGFTGSHCTYEEVMPHLEKLIAEGAEVRPVVSYTVQSTNTRFGEGAEWIKKIEEITGFKAINSIVGAEPLGPKIPLDCMVIAPLTGNSMSKFANAMTDSPVLMAAKATLRNGKPVVLAVSTNDALGLNGVNLMRLMATKNIYFVPFGQDAPEKKPNSMVARMELLEDTVLEALQGKQLQPVVVEKFRYMNLEHHHHHH”, the protein production entry is “not failed”.

In the case of “MSLKGLRRLVLDVLKPHEPKTIVFALKLSELENVDGVNIHLSEIDQATENIKITILGNNLDYEQIKGVIEDMGGVIHSVDEVVAGKIIVESVEGHHHHHH”, the protein production result is given as “not failed”.

Regarding “MSLKHVVVIGAVALGPKAACRFKRLDPEAHVTMIDQASRISYGGCGIPYYVSGEVSNIESLQATPYNVVRDPEFFRINKDVEALVETRAHAIDRAAHTVEIENLRTGERRTLKYDKLVLALGSKANRPPVEGMDLAGVTPVTNLDEAEFVQHAISAGEVSKAVIVGGGFIGLEMAVSLADMWGIDTTVVELADQIMPGFTSKSLSQMLRHDLEKNDVVVHTGEKVVRLEGENGKVARVITDKRTLDADLVILAAGVSPNTQLARDAGLELDPRGAIIVDTRMRTSDPDIFAGGDCVTIPNLVTGKPGFFPLGSMANRQGRVIGTNLADGDATFPGAVGSWAVKLFEGSASGAGLTVEGALREGYDAVNVHVEQFDRAHFYPEKTIMTLQLVVDRPTRRVLGIQGFSTLGDALTARINAVATMLASKPTVEDISNAEVVYSPPFASAMDIVNVAGNVADNVLAGREGHHHHHH”, the protein production entry was “not failed”.

On to “MSLKIIDFRLRPPAMGFLNARIYTRPDIRNRFTRQLGFEPAPSAEEKSLELMFEEMAAAGIEQGVCVGRNSSVLGSVSNADVAAVAKAYPDKFHPVGSIEAATRKEAMAQMQEILDLGIRIVNLEPGVWATPMHVDDRRLYPLYAFCEDNGIPVIMMTGGNAGPDITYTNPEHIDRVLGDFPDLTVVSSHGNWPWVQEIIHVAFRRPNLYLSPDMYLYNLPGHADFIQAANSFLADRMLFGTAYPMCPLKEYTEWFLTLPIKPDAMEKILHGNAERLLAQAGREGHHHHHH”, for which the protein production entry was “not failed”.

“MSLKITDVDVWVVNLPLVNPFTSSFETKTGETRTVVRVRTDSGVEGWGETMWGAPVAAIVRRMAPDLIGTSPFALEAFHRKQHMVPFFYGYLGYAAIAAVDVACWDAMGKATGQSVTDLLGGAVRDEVPITALITRADAPGATPADLPKAMAEHAVRVVEEGGFDAVKLKGTTDCAGDVAILRAVREALPGVNLRVDPNAAWSVPDSVRAGIALEELDLEYLEDPCVGIEGMAQVKAKVRIPLCTNMCVVRFEDFAPAMRLNAVDVIHGDVYKWGGIAATKALAAHCETFGLGMNLHSGGELGIATAAHLAVVSSTPVLSRAIDSMYYLHADDIIEPLHLENGRLRVPSGPGLGVSVDEDKLRHYAGVNERDGDLTGEGHHHHHH”: the protein production result was “not failed”.
